{"source": "the Human Domainome abundance scans (Beltran et al. 2025)", "parents": {"B1": {"name": "CD2-associated protein, residues 1 to 59; numbered along this chain, Q9Y5K6 (parent)", "chain": "MVDYIVEYDYDAVHDDELTIRVGEIIRNVKKLQEEGWLEGELNGRRGMFPDNFVKEIKR"}}, "note": "± gives the uncertainty stated by the source.", "data": [{"variants_of": "B1", "assay": "abundance fitness (aPCA) (normalised: wild type 0, dead -1); higher = more abundant; growth selection in yeast, the domain comes from the species named", "details": "Homo sapiens", "values": [{"variant": "MVDYIVEYDYDAVHDDELTIRVGEIIRDVKKLQEEGWLEGELNGRRGMFPDNFVKEIKR", "note": "[N28D]", "abundance fitness": "0.04 ± 0.091"}, {"variant": "MVDYIVEYDYDAVHDDELTIRVGEIIREVKKLQEEGWLEGELNGRRGMFPDNFVKEIKR", "note": "[N28E]", "abundance fitness": "-0.185 ± 0.095"}, {"variant": "MVDYIVEYDYDAVHDDELTIRVGEIIRFVKKLQEEGWLEGELNGRRGMFPDNFVKEIKR", "note": "[N28F]", "abundance fitness": "-0.516 ± 0.12"}, {"variant": "MVDYIVEYDYDAVHDDELTIRVGEIIRGVKKLQEEGWLEGELNGRRGMFPDNFVKEIKR", "note": "[N28G]", "abundance fitness": "-0.025 ± 0.083"}, {"variant": "MVDYIVEYDYDAVHDDELTIRVGEIIRHVKKLQEEGWLEGELNGRRGMFPDNFVKEIKR", "note": "[N28H]", "abundance fitness": "-0.206 ± 0.14"}, {"variant": "MVDYIVEYDYDAVHDDELTIRVGEIIRKVKKLQEEGWLEGELNGRRGMFPDNFVKEIKR", "note": "[N28K]", "abundance fitness": "-0.262 ± 0.093"}, {"variant": "MVDYIVEYDYDAVHDDELTIRVGEIIRLVKKLQEEGWLEGELNGRRGMFPDNFVKEIKR", "note": "[N28L]", "abundance fitness": "-0.734 ± 0.11"}, {"variant": "MVDYIVEYDYDAVHDDELTIRVGEIIRPVKKLQEEGWLEGELNGRRGMFPDNFVKEIKR", "note": "[N28P]", "abundance fitness": "-0.909 ± 0.23"}, {"variant": "MVDYIVEYDYDAVHDDELTIRVGEIIRQVKKLQEEGWLEGELNGRRGMFPDNFVKEIKR", "note": "[N28Q]", "abundance fitness": "-0.15 ± 0.12"}, {"variant": "MVDYIVEYDYDAVHDDELTIRVGEIIRSVKKLQEEGWLEGELNGRRGMFPDNFVKEIKR", "note": "[N28S]", "abundance fitness": "-0.176 ± 0.076"}, {"variant": "MVDYIVEYDYDAVHDDELTIRVGEIIRTVKKLQEEGWLEGELNGRRGMFPDNFVKEIKR", "note": "[N28T]", "abundance fitness": "-0.615 ± 0.14"}, {"variant": "MVDYIVEYDYDAVHDDELTIRVGEIIRVVKKLQEEGWLEGELNGRRGMFPDNFVKEIKR", "note": "[N28V]", "abundance fitness": "-0.927 ± 0.14"}, {"variant": "MVDYIVEYDYDAVHDDELTIRVGEIIRWVKKLQEEGWLEGELNGRRGMFPDNFVKEIKR", "note": "[N28W]", "abundance fitness": "-0.892 ± 0.28"}, {"variant": "MVDYIVEYDYDAVHDDELTIRVGEIIRNAKKLQEEGWLEGELNGRRGMFPDNFVKEIKR", "note": "[V29A]", "abundance fitness": "-0.069 ± 0.1"}, {"variant": "MVDYIVEYDYDAVHDDELTIRVGEIIRNCKKLQEEGWLEGELNGRRGMFPDNFVKEIKR", "note": "[V29C]", "abundance fitness": "-0.167 ± 0.46"}, {"variant": "MVDYIVEYDYDAVHDDELTIRVGEIIRNDKKLQEEGWLEGELNGRRGMFPDNFVKEIKR", "note": "[V29D]", "abundance fitness": "-0.866 ± 0.35"}, {"variant": "MVDYIVEYDYDAVHDDELTIRVGEIIRNEKKLQEEGWLEGELNGRRGMFPDNFVKEIKR", "note": "[V29E]", "abundance fitness": "-0.251 ± 0.24"}, {"variant": "MVDYIVEYDYDAVHDDELTIRVGEIIRNGKKLQEEGWLEGELNGRRGMFPDNFVKEIKR", "note": "[V29G]", "abundance fitness": "-0.261 ± 0.11"}, {"variant": "MVDYIVEYDYDAVHDDELTIRVGEIIRNIKKLQEEGWLEGELNGRRGMFPDNFVKEIKR", "note": "[V29I]", "abundance fitness": "-0.441 ± 0.23"}, {"variant": "MVDYIVEYDYDAVHDDELTIRVGEIIRNKKKLQEEGWLEGELNGRRGMFPDNFVKEIKR", "note": "[V29K]", "abundance fitness": "-0.999 ± 0.28"}, {"variant": "MVDYIVEYDYDAVHDDELTIRVGEIIRNLKKLQEEGWLEGELNGRRGMFPDNFVKEIKR", "note": "[V29L]", "abundance fitness": "-0.62 ± 0.22"}, {"variant": "MVDYIVEYDYDAVHDDELTIRVGEIIRNMKKLQEEGWLEGELNGRRGMFPDNFVKEIKR", "note": "[V29M]", "abundance fitness": "-0.883 ± 0.43"}, {"variant": "MVDYIVEYDYDAVHDDELTIRVGEIIRNRKKLQEEGWLEGELNGRRGMFPDNFVKEIKR", "note": "[V29R]", "abundance fitness": "-1.04 ± 0.31"}, {"variant": "MVDYIVEYDYDAVHDDELTIRVGEIIRNSKKLQEEGWLEGELNGRRGMFPDNFVKEIKR", "note": "[V29S]", "abundance fitness": "-0.448 ± 0.2"}, {"variant": "MVDYIVEYDYDAVHDDELTIRVGEIIRNTKKLQEEGWLEGELNGRRGMFPDNFVKEIKR", "note": "[V29T]", "abundance fitness": "-0.378 ± 0.2"}, {"variant": "MVDYIVEYDYDAVHDDELTIRVGEIIRNVAKLQEEGWLEGELNGRRGMFPDNFVKEIKR", "note": "[K30A]", "abundance fitness": "-0.181 ± 0.13"}, {"variant": "MVDYIVEYDYDAVHDDELTIRVGEIIRNVCKLQEEGWLEGELNGRRGMFPDNFVKEIKR", "note": "[K30C]", "abundance fitness": "-0.148 ± 0.12"}, {"variant": "MVDYIVEYDYDAVHDDELTIRVGEIIRNVDKLQEEGWLEGELNGRRGMFPDNFVKEIKR", "note": "[K30D]", "abundance fitness": "-0.22 ± 0.18"}, {"variant": "MVDYIVEYDYDAVHDDELTIRVGEIIRNVEKLQEEGWLEGELNGRRGMFPDNFVKEIKR", "note": "[K30E]", "abundance fitness": "0.007 ± 0.18"}, {"variant": "MVDYIVEYDYDAVHDDELTIRVGEIIRNVFKLQEEGWLEGELNGRRGMFPDNFVKEIKR", "note": "[K30F]", "abundance fitness": "-0.158 ± 0.14"}, {"variant": "MVDYIVEYDYDAVHDDELTIRVGEIIRNVGKLQEEGWLEGELNGRRGMFPDNFVKEIKR", "note": "[K30G]", "abundance fitness": "-0.127 ± 0.1"}, {"variant": "MVDYIVEYDYDAVHDDELTIRVGEIIRNVHKLQEEGWLEGELNGRRGMFPDNFVKEIKR", "note": "[K30H]", "abundance fitness": "0.111 ± 0.19"}, {"variant": "MVDYIVEYDYDAVHDDELTIRVGEIIRNVIKLQEEGWLEGELNGRRGMFPDNFVKEIKR", "note": "[K30I]", "abundance fitness": "-0.274 ± 0.12"}, {"variant": "MVDYIVEYDYDAVHDDELTIRVGEIIRNVLKLQEEGWLEGELNGRRGMFPDNFVKEIKR", "note": "[K30L]", "abundance fitness": "-0.191 ± 0.09"}, {"variant": "MVDYIVEYDYDAVHDDELTIRVGEIIRNVMKLQEEGWLEGELNGRRGMFPDNFVKEIKR", "note": "[K30M]", "abundance fitness": "0.018 ± 0.11"}, {"variant": "MVDYIVEYDYDAVHDDELTIRVGEIIRNVNKLQEEGWLEGELNGRRGMFPDNFVKEIKR", "note": "[K30N]", "abundance fitness": "-0.113 ± 0.16"}, {"variant": "MVDYIVEYDYDAVHDDELTIRVGEIIRNVQKLQEEGWLEGELNGRRGMFPDNFVKEIKR", "note": "[K30Q]", "abundance fitness": "-0.31 ± 0.19"}, {"variant": "MVDYIVEYDYDAVHDDELTIRVGEIIRNVRKLQEEGWLEGELNGRRGMFPDNFVKEIKR", "note": "[K30R]", "abundance fitness": "-0.071 ± 0.068"}, {"variant": "MVDYIVEYDYDAVHDDELTIRVGEIIRNVSKLQEEGWLEGELNGRRGMFPDNFVKEIKR", "note": "[K30S]", "abundance fitness": "-0.135 ± 0.095"}, {"variant": "MVDYIVEYDYDAVHDDELTIRVGEIIRNVTKLQEEGWLEGELNGRRGMFPDNFVKEIKR", "note": "[K30T]", "abundance fitness": "-0.07 ± 0.11"}, {"variant": "MVDYIVEYDYDAVHDDELTIRVGEIIRNVVKLQEEGWLEGELNGRRGMFPDNFVKEIKR", "note": "[K30V]", "abundance fitness": "-0.166 ± 0.13"}, {"variant": "MVDYIVEYDYDAVHDDELTIRVGEIIRNVWKLQEEGWLEGELNGRRGMFPDNFVKEIKR", "note": "[K30W]", "abundance fitness": "-0.192 ± 0.091"}, {"variant": "MVDYIVEYDYDAVHDDELTIRVGEIIRNVKALQEEGWLEGELNGRRGMFPDNFVKEIKR", "note": "[K31A]", "abundance fitness": "0.053 ± 0.11"}, {"variant": "MVDYIVEYDYDAVHDDELTIRVGEIIRNVKCLQEEGWLEGELNGRRGMFPDNFVKEIKR", "note": "[K31C]", "abundance fitness": "0.109 ± 0.34"}, {"variant": "MVDYIVEYDYDAVHDDELTIRVGEIIRNVKELQEEGWLEGELNGRRGMFPDNFVKEIKR", "note": "[K31E]", "abundance fitness": "-0.061 ± 0.11"}]}]}
